Like-named read-outs stand apart in the source and are kept apart here.
Assays:
[1] = system: MCF-7 (breast carcinoma); experiment: MCF-7 tumor in mice, soluble EphB4; type: in vivo, mouse
Method: (§1) Tumors were injected premixed with Matrigel plus growth factors and soluble EphB4 subcutaneously. After 10 to 14 days, the mice were injected intravenously with FITC-lectin (green) to assess blood vessel perfusion.

[2] = system: B16 (melanoma); experiment: B16 melanoma tumor in mice, soluble EphB4; type: in vivo, mouse
Method: as §1
30 athymic nude mice, BALB/c (nu/nu), were each injected with 1×10^6 B16 melanoma cells with 0.1 ml PBS mixed with 0.1 ml matrigel or 1.5×10^6 SCC15 cells resuspended in 200 μl of DMEM serum-free medium and injected subcutaneously on day 0 on the right shoulder region of mice. Proteins were injected intravenously or subcutaneously, around the tumor beginning on day 1 at a loading dose of 4 μg/mg, with weekly injections of 2 ug/mg. (10 μg/g, 50 μg/kg/day), and at 2 weeks post-inoculation. Mice are sacrificed on Day 14. Control mice received PBS 50 μl each day.

[3] = system: human endothelial cells; experiment: Endothelial cell chemotaxis / migration (Boyden chamber); type: cell-based; settings: for chemotaxis of human endothelial cells: umbilical cord and hepatic AECs or VECs, growth factor stimuli
Method: Migration is assessed using the 48-well Boyden chamber and 8 μm pore size collagen-coated (10 μg/ml rat tail collagen; Collaborative Laboratories) polycarbonate filters (Osmonics, Inc.). The bottom chamber wells receive 27-29 μl of DMEM medium alone (baseline) or medium containing chemo-attractant (bFGF, VEGF or Swiss 3T3 cell conditioned medium). The top chambers receive 45 μl of HUVEC cell suspension (1×10^6 cells/ml) prepared in DMEM+1% BSA with or without test compound. After 5 h incubation at 37° C., the membrane is rinsed in PBS, fixed and stained in Diff-Quick solutions. The filter is placed on a glass slide with the migrated cells facing down and cells on top are removed using a Kimwipe. The testing is performed in 4-6 replicates and five fields are counted from each well. Negative unstimulated control values are subtracted from stimulated control and drug treated values and data is plotted as mean migrated cell±S.D. IC50 is calculated from the plotted data.
Chemotaxis of HUVECs to VEGF was assessed using a modified Boyden chamber, transwell membrane filter inserts in 24 well plates, 6.5 mm diam, 8 μm pore size, 10 μm thick matrigel coated, polycarbonate membranes (BD Biosciences). The cell suspensions of HUVECs (2×10^5 cells/ml) in 200 μl of EBM were seeded in the upper chamber and the soluble EphB4 protein were added simultaneously with stimulant (VEGF or bFGF) to the lower compartment of the chamber and their migration across a polycarbonate filter in response to 10-20 ng/ml of VEGF with or without 100 nM-1 μM test compound was investigated. After incubation for 4-24 h at 37° C., the upper surface of the filter was scraped with swab and filters were fixed and stained with Diff Quick. Ten random fields at 200× mag were counted and the results expressed as mean # per field. Negative unstimulated control values were subtracted from stimulated control and protein treated sample values and the data was plotted as mean migrated cell±S.D. IC50 was calculated from the plotted data.

[4] = system: vascularization of Matrigel plugs; experiment: Murine Matrigel plug angiogenesis assay; type: in vivo, mouse; settings: for vascularization of Matrigel plugs / in vivo angiogenesis: plugs with bFGF and VEGF, s.c., mice; for infiltration / invasion of cells into Matrigel plugs: plugs with growth factors
Method: (§2) Cord formation assay of HUVEC in Matrigel™ (upper row). Cells in exponential growth phase were treated overnight with the indicated concentrations of EphB4 extracellular domain (ECD) prior to plating on Matrigel™. Cells were trypsinized and plated (1×10^5 cells/well) in a 24-well plate containing 0.5 ml Matrigel™. Shown are representative 20× phase contrast fields of cord formation after 8 hr plating on Matrigel™ in the continued presence of the test compounds as shown. Original magnification 200×. KS-SLK cells treated in a similar manner (middle row) in a cord formation assay on Matrigel™. […] After 7 days the plugs were removed, sectioned and stained with H&E to visualize cells migrating into the matrix.
Matrigel supplemented with bFGF and VEGF with and without soluble EphB4 was injected s.c. into Balb/C nu/nu mice, forming semi-solid plugs, for six days. Plugs without growth factors had virtually no vascularization or vessel structures after 6 days (FIG. 21). In contrast, plugs supplemented with bFGF and VEGF had extensive vascularization and vessels throughout the plug.
In vivo angiogenesis was assayed in mice as growth of blood vessels from subcutaneous tissue into a Matrigel plug containing the test sample. Matrigel rapidly forms a solid gel at body temperature, trapping the factors to allow slow release and prolonged exposure to surrounding tissues. Matrigel (8.13 mg/ml, 0.5 ml) in liquid form at 4° C. was mixed with Endothelial Cell Growth Supplement (ECGS), test proteins plus ECGS or Matrigel plus vehicle alone (PBS containing 0.25% BSA). Matrigel (0.5 ml) was injected into the abdominal subcutaneous tissue of female nu/nu mice (6 wks old) along the peritoneal mid line. There were 3 mice in each group. The animals were cared for in accordance with institutional and NIH guidelines. At day 6, mice were sacrificed and plugs were recovered and processed for histology. Typically the overlying skin was removed, and gels were cut out by retaining the peritoneal lining for support, fixed in 10% buffered formalin in PBS and embedded in paraffin. Sections of 3 μm were cut and stained with H&E or Masson's trichrome stain and examined under light microscope

[5] = system: HUVEC; experiment: Endothelial cell tube (cord) formation on Matrigel; type: cell-based, human
Method: as §2
Matrigel (60 μl of 10 mg/ml; Collaborative Lab #35423) is placed in each well of an ice-cold 96-well plate. The plate is allowed to sit at room temperature for 15 minutes then incubated at 37° C. for 30 minutes to permit the matrigel to polymerize. In the mean time, HUVECs are prepared in EGM-2 (Clonetic #CC3162) at a concentration of 2×10^5 cells/ml. The test compound is prepared at 2× the desired concentration (5 concentration levels) in the same medium. Cells (500 μl) and 2× drug (500 μl) is mixed and 200 μl of this suspension are placed in duplicate on the polymerized matrigel. After 24 h incubation, triplicate pictures are taken for each concentration using a Bioquant Image Analysis system. Drug effect (IC50) is assessed compared to untreated controls by measuring the length of cords formed and number of junctions.
Matrigel (60 μl of 10 mg/ml; Collaborative Lab, Cat. No. 35423) was placed in each well of an ice-cold 96-well plate. The plate was allowed to sit at room temperature for 15 minutes then incubated at 37° C. for 30 minutes to permit Matrigel to polymerize. In the mean time, human umbilical vein endothelial cells were prepared in EGM-2 (Clonetic, Cat. No. CC3162) at a concentration of 2×10^5 cells/ml. The test protein was prepared at 2× the desired concentration (5 concentration levels) in the same medium. Cells (500 μl) and 2× protein (500 μl) were mixed and 200 μl of this suspension were placed in duplicate on the polymerized Matrigel. After 24 h incubation, triplicate pictures were taken for each concentration using a Bioquant Image Analysis system. Protein addition effect (IC50) was assessed compared to untreated controls by measuring the length of cords formed and number of junctions.

B1: soluble EphB4: soluble EphB4 extracellular domain protein; exact construct not stated at the results (protein)
chain: LEETLLNTKLETADLKWVTFPQVDGQWEELSGLDEEQHSVRTYEVCDVQRAPGQAHWLRTGWVPRRGAVHVYATLRFTMLECLSLPRAGRSCKETFTVFYYESDADTATALTPAWMENPYIKVDTVAAEHLTRKRPGAEATGKVNVKTLRLGPLSKAGFYLAFQDQGACMALLSLHLFYKKCAQLTVNLTRFPETVPRELVVPVAGSCVVDAVPAPGPSPSLYCREDGQWAEQPVTGCSCAPGFEAAEGNTKCRACAQGTFKPLSGEGSCQPCPANSHSNTIGSAVCQCRVGYFRARTDPRGAPCTTPPSAPRSVVSRLNGSSLHLEWSAPLESGGREDLTYALRCRECRPGGSCAPCGGDLTFDPGPRDLVEPWVVVRGLRPDFTYTFEVTALNGVSSLATGPVPFEPVNVTTDREVPPAVSDIRVTRSSPSSLSLAWAVPRAPSGAVLDYEVKYHEKGAEGPSSVRFLKTSENRAELRGLKRGASYLVQVRARSEAGYGPFGQEHHSQTQLDESEGWREQLA
tumor angiogenesis ([1]; MCF-7, premixed with Matrigel plus growth factors, 10 to 14 days): marked inhibition
tumor angiogenesis ([2]; B16, premixed with Matrigel plus growth factors, 10 to 14 days): marked inhibition
bFGF and VEGF-induced migration ([3]; HUV/AEC, Boyden chamber, dose-dependent): significantly inhibited
vascularization of Matrigel plugs / in vivo angiogenesis [4]: markedly reduced
vascularization of Matrigel plugs / in vivo angiogenesis ([4]; listed as EphB4-ECD): inhibits
infiltration / invasion of cells into Matrigel plugs [4]: significantly inhibited
infiltration / invasion of cells into Matrigel plugs ([4]; listed as EphB4 ECD): almost completely inhibited
endothelial cell tube / tubule / cord formation [5]: significantly inhibited
endothelial cell tube / tubule / cord formation ([5]; listed as EphB4-ECD): inhibits

B2: B4ECv3: soluble extracellular domain derivative of human EphB4, SEQ ID NO:1 (protein)
chain: MELRVLLCWASLAAALEETLLNTKLETADLKWVTFPQVDGQWEELSGLDEEQHSVRTYEVCEVQRAPGQAHWLRTGWVPRRGAVHVYATLRFTMLECLSLPRAGRSCKETFTVFYYESDADTATALTPAWMENPYIKVDTVAAEHLTRKRPGAEATGKVNVKTLRLGPLSKAGFYLAFQDQGACMALLSLHLFYKKCAQLTVNLTRFPETVPRELVVPVAGSCVVDAVPAPGPSPSLYCREDGQWAEQPVTGCSCAPGFEAAEGNTKCRACAQGTFKPLSGEGSCQPCPANSHSNTIGSAVCQCRVGYFRARTDPRGAPCTTPPSAPRSVVSRLNGSSLHLEWSAPLESGGREDLTYALRCRECRPGGSCAPCGGDLTFDPGPRDLVEPWVVVRGLRPDFTYTFEVTALNGVSSLATGPVPFEPVNVTTDREVPPAVSDIRVTRSSPSSLSLAWAVPRAPSGAWLDYEVKYHEKGAEGPSSVRFLKTSENRAELRGLKRGASYLVQVRARSEAGYGPFGQEHHSQTQLDESEGWREQGSKRAILQIEGKPIPNPLLGLDSTRTGHHHHHH
modifications: Recombinant B4ECv3 protein
in vivo tumor growth ([1]; MCF-7 co-injected with matrigel and growth factors): inhibits
in vivo tumor growth ([2]; B16 co-injected with matrigel and growth factors): inhibits
chemotaxis of human endothelial cells [3]: blocked chemotaxis
chemotaxis of human endothelial cells ([3]; listed as EphB4v3): inhibits chemotaxis
infiltration / invasion of cells into Matrigel plugs [4]: inhibits invasion
endothelial cell tube / tubule / cord formation [5]: inhibition
endothelial cell tube / tubule / cord formation ([5]; listed as B4v3): strong inhibition
